Test results from patent US20230406951A1 (Pfizer, published 2023).

Target: T1, human TNFR2 (human, UniProt P20333 23-461)
T1 construct: expressed on the surface of CHO cells; also called HuTNFR2; TNFRSF1B
T1 sequence: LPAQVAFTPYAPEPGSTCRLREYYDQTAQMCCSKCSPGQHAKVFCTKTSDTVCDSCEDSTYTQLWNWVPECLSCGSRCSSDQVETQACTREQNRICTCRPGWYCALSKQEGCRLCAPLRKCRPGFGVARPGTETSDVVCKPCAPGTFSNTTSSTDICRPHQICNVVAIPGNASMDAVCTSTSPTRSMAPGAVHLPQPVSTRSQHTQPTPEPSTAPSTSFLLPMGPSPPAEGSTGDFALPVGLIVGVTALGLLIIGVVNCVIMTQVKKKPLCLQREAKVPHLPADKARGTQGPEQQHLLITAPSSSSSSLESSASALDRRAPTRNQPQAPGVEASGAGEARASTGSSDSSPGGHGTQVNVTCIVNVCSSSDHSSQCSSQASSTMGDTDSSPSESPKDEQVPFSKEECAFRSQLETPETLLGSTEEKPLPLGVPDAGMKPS
Assay: binding to human TNFR2 CHO cells

B1: IgG 2030 (antibody, name in Kabat numbering, V domains shown)
VH: QVQLVQSGAEVKKPGASVKVSCKVSGFSFPSSGVDWVRQAPGQGLEWLGVTHGSGSTHYNQKFQGRVTITKDTSKSTVYMELSSLRSEDTAVYYCASGEHDEGFVYWGQGTLVTVSS
VL: DIQLTQSPSFLSASVGDRVTITCKASQNVGTAVAWYQQKPGKAPKLLIYAASTLQSGVPSRFSGSGSGTEFTLTISSLQPEDFATYYCLQKSSYPLTFGGGTKVEIKR
notes: IgG
Q: Does B1 bind?
A: no binding

B2: IgG 2031 (antibody, name in Kabat numbering, V domains shown)
VH: QVQLVQSGAEVKKPGASVKVSCKVSGFSFPSSGVDWVRQAPGQGLEWLGVTHGSGSTHYNQKFQGRVTITKDTSKSTVYMELSSLRSEDTAVYYCASGERDEGFVYWGQGTLVTVSS
VL: DIQLTQSPSFLSASVGDRVTITCKASQNVGTAVAWYQQKPGKAPKLLIYAASTLQSGVPSRFSGSGSGTEFTLTISSLQPEDFATYYCLQKSSYPLTFGGGTKVEIKR
notes: IgG
Q: Does B2 bind?
A: no binding

B3: IgG 2032 (antibody, name in Kabat numbering, V domains shown)
VH: QVQLVQSGAEVKKPGASVKVSCKVSGFSFPSSGVDWVRQAPGQGLEWLGVTHGSGSTHYNQKFQGRVTITKDTSKSTVYMELSSLRSEDTAVYYCASGEQDEGFVYWGQGTLVTVSS
VL: DIQLTQSPSFLSASVGDRVTITCKASQNVGTAVAWYQQKPGKAPKLLIYAASTLQSGVPSRFSGSGSGTEFTLTISSLQPEDFATYYCLQKSSYPLTFGGGTKVEIKR
notes: IgG
Q: Does B3 bind?
A: no binding

B4: IgG 2033 (antibody, name in Kabat numbering, V domains shown)
VH: QVQLVQSGAEVKKPGASVKVSCKVSGFSFPSSGVDWVRQAPGQGLEWLGVTKGQGSTHYNQKFQGRVTITKDTSKSTVYMELSSLRSEDTAVYYCASGESTEGFVYWGQGTLVTVSS
VL: DIQLTQSPSFLSASVGDRVTITCKASQNVGTAVAWYQQKPGKAPKLLIYAASTLQSGVPSRFSGSGSGTEFTLTISSLQPEDFATYYCLQYSSYPLTFGGGTKVEIKR
notes: IgG
Q: Does B4 bind?
A: no binding

B5: IgG 2034 (antibody, name in Kabat numbering, V domains shown)
VH: QVQLVQSGAEVKKPGASVKVSCKVSGFSFPSSGVDWVRQAPGQGLEWLGVTKGQGSTHYNQKFQGRVTITKDTSKSTVYMELSSLRSEDTAVYYCASGEHDEGFVYWGQGTLVTVSS
VL: DIQLTQSPSFLSASVGDRVTITCKASQNVGTAVAWYQQKPGKAPKLLIYAASTLQSGVPSRFSGSGSGTEFTLTISSLQPEDFATYYCLQYSSYPLTFGGGTKVEIKR
notes: IgG
Q: Does B5 bind?
A: no binding

B6: IgG 2035 (antibody, name in Kabat numbering, V domains shown)
VH: QVQLVQSGAEVKKPGASVKVSCKVSGFSFPSSGVDWVRQAPGQGLEWLGVTKGQGSTHYNQKFQGRVTITKDTSKSTVYMELSSLRSEDTAVYYCASGERDEGFVYWGQGTLVTVSS
VL: DIQLTQSPSFLSASVGDRVTITCKASQNVGTAVAWYQQKPGKAPKLLIYAASTLQSGVPSRFSGSGSGTEFTLTISSLQPEDFATYYCLQYSSYPLTFGGGTKVEIKR
notes: IgG
Q: Does B6 bind?
A: no binding

B7: IgG 2036 (antibody, name in Kabat numbering, V domains shown)
VH: QVQLVQSGAEVKKPGASVKVSCKVSGFSFPSSGVDWVRQAPGQGLEWLGVTKGQGSTHYNQKFQGRVTITKDTSKSTVYMELSSLRSEDTAVYYCASGEQDEGFVYWGQGTLVTVSS
VL: DIQLTQSPSFLSASVGDRVTITCKASQNVGTAVAWYQQKPGKAPKLLIYAASTLQSGVPSRFSGSGSGTEFTLTISSLQPEDFATYYCLQYSSYPLTFGGGTKVEIKR
notes: IgG
Q: Does B7 bind?
A: no binding

B8: IgG 2037 (antibody, name in Kabat numbering, V domains shown)
VH: QVQLVQSGAEVKKPGASVKVSCKVSGFSFPSSGVDWVRQAPGQGLEWLGVTRGEGSTHYNQKFQGRVTITKDTSKSTVYMELSSLRSEDTAVYYCASGESTEGFVYWGQGTLVTVSS
VL: DIQLTQSPSFLSASVGDRVTITCKASQNVGTAVAWYQQKPGKAPKLLIYAASTLQSGVPSRFSGSGSGTEFTLTISSLQPEDFATYYCLQYSSYPLTFGGGTKVEIKR
notes: IgG
Q: Does B8 bind?
A: no binding

B9: IgG 2038 (antibody, name in Kabat numbering, V domains shown)
VH: QVQLVQSGAEVKKPGASVKVSCKVSGFSFPSSGVDWVRQAPGQGLEWLGVTRGEGSTHYNQKFQGRVTITKDTSKSTVYMELSSLRSEDTAVYYCASGEHDEGFVYWGQGTLVTVSS
VL: DIQLTQSPSFLSASVGDRVTITCKASQNVGTAVAWYQQKPGKAPKLLIYAASTLQSGVPSRFSGSGSGTEFTLTISSLQPEDFATYYCLQYSSYPLTFGGGTKVEIKR
notes: IgG
Q: Does B9 bind?
A: no binding

B10: IgG 2039 (antibody, name in Kabat numbering, V domains shown)
VH: QVQLVQSGAEVKKPGASVKVSCKVSGFSFPSSGVDWVRQAPGQGLEWLGVTRGEGSTHYNQKFQGRVTITKDTSKSTVYMELSSLRSEDTAVYYCASGERDEGFVYWGQGTLVTVSS
VL: DIQLTQSPSFLSASVGDRVTITCKASQNVGTAVAWYQQKPGKAPKLLIYAASTLQSGVPSRFSGSGSGTEFTLTISSLQPEDFATYYCLQYSSYPLTFGGGTKVEIKR
notes: IgG
Q: Does B10 bind?
A: no binding

B11: IgG 2041 (antibody, name in Kabat numbering, V domains shown)
VH: QVQLVQSGAEVKKPGASVKVSCKVSGFSFPSSGVDWVRQAPGQGLEWLGVTFQEGSTHYNQKFQGRVTITKDTSKSTVYMELSSLRSEDTAVYYCASGESTEGFVYWGQGTLVTVSS
VL: DIQLTQSPSFLSASVGDRVTITCKASQNVGTAVAWYQQKPGKAPKLLIYAASTLQSGVPSRFSGSGSGTEFTLTISSLQPEDFATYYCLQYSSYPLTFGGGTKVEIKR
notes: IgG
Q: Does B11 bind?
A: no binding

B12: IgG 2042 (antibody, name in Kabat numbering, V domains shown)
VH: QVQLVQSGAEVKKPGASVKVSCKVSGFSFPSSGVDWVRQAPGQGLEWLGVTFQEGSTHYNQKFQGRVTITKDTSKSTVYMELSSLRSEDTAVYYCASGEHDEGFVYWGQGTLVTVSS
VL: DIQLTQSPSFLSASVGDRVTITCKASQNVGTAVAWYQQKPGKAPKLLIYAASTLQSGVPSRFSGSGSGTEFTLTISSLQPEDFATYYCLQYSSYPLTFGGGTKVEIKR
notes: IgG
Q: Does B12 bind?
A: no binding

B13: IgG 2043 (antibody, name in Kabat numbering, V domains shown)
VH: QVQLVQSGAEVKKPGASVKVSCKVSGFSFPSSGVDWVRQAPGQGLEWLGVTFQEGSTHYNQKFQGRVTITKDTSKSTVYMELSSLRSEDTAVYYCASGERDEGFVYWGQGTLVTVSS
VL: DIQLTQSPSFLSASVGDRVTITCKASQNVGTAVAWYQQKPGKAPKLLIYAASTLQSGVPSRFSGSGSGTEFTLTISSLQPEDFATYYCLQYSSYPLTFGGGTKVEIKR
notes: IgG
Q: Does B13 bind?
A: no binding

B14: IgG 2044 (antibody, name in Kabat numbering, V domains shown)
VH: QVQLVQSGAEVKKPGASVKVSCKVSGFSFPSSGVDWVRQAPGQGLEWLGVTFQEGSTHYNQKFQGRVTITKDTSKSTVYMELSSLRSEDTAVYYCASGEQDEGFVYWGQGTLVTVSS
VL: DIQLTQSPSFLSASVGDRVTITCKASQNVGTAVAWYQQKPGKAPKLLIYAASTLQSGVPSRFSGSGSGTEFTLTISSLQPEDFATYYCLQYSSYPLTFGGGTKVEIKR
notes: IgG
Q: Does B14 bind?
A: no binding

B15: IgG 2045 (antibody, name in Kabat numbering, V domains shown)
VH: QVQLVQSGAEVKKPGASVKVSCKVSGFSFPSSGVDWVRQAPGQGLEWLGVTLGHGSTHYNQKFQGRVTITKDTSKSTVYMELSSLRSEDTAVYYCASGESTEGFVYWGQGTLVTVSS
VL: DIQLTQSPSFLSASVGDRVTITCKASQNVGTAVAWYQQKPGKAPKLLIYAASTLQSGVPSRFSGSGSGTEFTLTISSLQPEDFATYYCLQYSSYPLTFGGGTKVEIKR
notes: IgG
Q: Does B15 bind?
A: no binding

B16: IgG 2046 (antibody, name in Kabat numbering, V domains shown)
VH: QVQLVQSGAEVKKPGASVKVSCKVSGFSFPSSGVDWVRQAPGQGLEWLGVTLGHGSTHYNQKFQGRVTITKDTSKSTVYMELSSLRSEDTAVYYCASGEHDEGFVYWGQGTLVTVSS
VL: DIQLTQSPSFLSASVGDRVTITCKASQNVGTAVAWYQQKPGKAPKLLIYAASTLQSGVPSRFSGSGSGTEFTLTISSLQPEDFATYYCLQYSSYPLTFGGGTKVEIKR
notes: IgG
Q: Does B16 bind?
A: no binding

B17: IgG 2047 (antibody, name in Kabat numbering, V domains shown)
VH: QVQLVQSGAEVKKPGASVKVSCKVSGFSFPSSGVDWVRQAPGQGLEWLGVTLGHGSTHYNQKFQGRVTITKDTSKSTVYMELSSLRSEDTAVYYCASGERDEGFVYWGQGTLVTVSS
VL: DIQLTQSPSFLSASVGDRVTITCKASQNVGTAVAWYQQKPGKAPKLLIYAASTLQSGVPSRFSGSGSGTEFTLTISSLQPEDFATYYCLQYSSYPLTFGGGTKVEIKR
notes: IgG
Q: Does B17 bind?
A: no binding

B18: IgG 2048 (antibody, name in Kabat numbering, V domains shown)
VH: QVQLVQSGAEVKKPGASVKVSCKVSGFSFPSSGVDWVRQAPGQGLEWLGVTLGHGSTHYNQKFQGRVTITKDTSKSTVYMELSSLRSEDTAVYYCASGEQDEGFVYWGQGTLVTVSS
VL: DIQLTQSPSFLSASVGDRVTITCKASQNVGTAVAWYQQKPGKAPKLLIYAASTLQSGVPSRFSGSGSGTEFTLTISSLQPEDFATYYCLQYSSYPLTFGGGTKVEIKR
notes: IgG
Q: Does B18 bind?
A: no binding

B19: IgG 2050 (antibody, name in Kabat numbering, V domains shown)
VH: QVQLVQSGAEVKKPGASVKVSCKVSGFSFPSSGVDWVRQAPGQGLEWLGVTHGSGSTHYNQKFQGRVTITKDTSKSTVYMELSSLRSEDTAVYYCASGEHDEGFVYWGQGTLVTVSS
VL: DIQLTQSPSFLSASVGDRVTITCKASQNVGTAVAWYQQKPGKAPKLLIYAASTLQSGVPSRFSGSGSGTEFTLTISSLQPEDFATYYCLQYSSYPLTFGGGTKVEIKR
notes: IgG
Q: Does B19 bind?
A: no binding

B20: IgG 2051 (antibody, name in Kabat numbering, V domains shown)
VH: QVQLVQSGAEVKKPGASVKVSCKVSGFSFPSSGVDWVRQAPGQGLEWLGVTHGSGSTHYNQKFQGRVTITKDTSKSTVYMELSSLRSEDTAVYYCASGERDEGFVYWGQGTLVTVSS
VL: DIQLTQSPSFLSASVGDRVTITCKASQNVGTAVAWYQQKPGKAPKLLIYAASTLQSGVPSRFSGSGSGTEFTLTISSLQPEDFATYYCLQYSSYPLTFGGGTKVEIKR
notes: IgG
Q: Does B20 bind?
A: no binding
